Laboratory results published in patent US20060121032A1 (published 2006).

Molecular target: extracellular region of human V158 FcγRIIIa with C-terminal 6×His-tag and GST-tag (human, UniProt P08637 17-208)
Assay: SPR

Sequence of extracellular region of human V158 FcγRIIIa with C-terminal 6×His-tag and GST-tag (P08637 17-208 F176V): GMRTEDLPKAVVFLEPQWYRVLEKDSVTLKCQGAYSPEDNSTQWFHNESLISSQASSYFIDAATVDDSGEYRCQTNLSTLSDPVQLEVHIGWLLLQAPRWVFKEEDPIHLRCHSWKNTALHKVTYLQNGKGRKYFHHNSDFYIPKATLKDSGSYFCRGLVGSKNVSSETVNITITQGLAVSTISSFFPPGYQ

B1: alemtuzumab K246H (antibody)
chain 1: not shown
chain 2: not shown
Fold WT: 22.4 fold

B2: alemtuzumab V284E (antibody)
chain 1: not shown
chain 2: not shown
Fold WT: 1.51 fold

B3: alemtuzumab E283H (antibody)
chain 1: not shown
chain 2: not shown
Fold WT: 2.31 fold

B4: alemtuzumab H268D (antibody)
chain 1: not shown
chain 2: not shown
Fold WT: 5.66 fold

B5: alemtuzumab E272P (antibody)
chain 1: not shown
chain 2: not shown
Fold WT: 1.41 fold

B6: alemtuzumab E258H (antibody)
chain 1: not shown
chain 2: not shown
Fold WT: 5.5 fold

B7: alemtuzumab S324G (antibody)
chain 1: not shown
chain 2: not shown
Fold WT: 14.2 fold

B8: alemtuzumab E272H (antibody)
chain 1: not shown
chain 2: not shown
Fold WT: 384 fold

B9: alemtuzumab K246Y (antibody)
chain 1: not shown
chain 2: not shown
Fold WT: 7.07 fold

B10: alemtuzumab R255Y (antibody)
chain 1: not shown
chain 2: not shown
Fold WT: 1.41 fold

B11: alemtuzumab G236S (antibody)
chain 1: not shown
chain 2: not shown
Fold WT: 6.69 fold

B12: alemtuzumab E283L (antibody)
chain 1: not shown
chain 2: not shown
Fold WT: 2.56 fold

B13: alemtuzumab S267E (antibody)
chain 1: not shown
chain 2: not shown
Fold WT: 2.62 fold

B14: alemtuzumab E258Y (antibody)
chain 1: not shown
chain 2: not shown
Fold WT: 1.77 fold

B15: alemtuzumab S304T (antibody)
chain 1: not shown
chain 2: not shown
Fold WT: 12.8 fold
